According to patent publication US20090087417A1, “METHODS FOR PROMOTING DOPAMINERGIC NEURONAL DEVELOPMENT BY USING NG4A-SUBFAMILY AND WNT-LIGANDS” (priority 2002, published 2009):

B1: Wnt-1: Partially purified conditioned media from stable fibroblast cell line engineered to secrete Wnt-1 ligand (protein)
chain: ANSSGRWWGIVNIASSTNLLTDSKSLQLVLEPSLQLLSRKQRRLIRQNPGILHSVSGGLQSAVRECKWQFRNRRWNCPTAPGPHLFGKIVNRGCRETAFIFAITSAGVTHSVARSCSEGSIESCTCDYRRRGPGGPDWHWGGCSDNIDFGRLFGREFVDSGEKGRDLRFLMNLHNNEAGRTTVFSEMRQECKCHGMSGSCTVRTCWMRLPTLRAVGDVLRDRFDGASRVLYGNRGSNRASRAELLRLEPEDPAHKPPSPHDLVYFEKSPNFCTYSGRLGTAGTAGRACNSSSPALDGCELLCCGRGHRTRTQRVTERCNCTFHWCCHVSCRNCTHTRVLHECL
modifications: left off: small tags and cut ends
B2: Wnt-7a: Partially purified / conditioned media from Wnt-7a overexpressing fibroblast cell line (protein, UniProt P24383 32-349, looked up)
Protein Wnt-7a: LGASIICNKIPGLAPRQRAICQSRPDAIIVIGEGSQMGLDECQFQFRNGRWNCSALGERTVFGKELKVGSREAAFTYAIIAAGVAHAITAACTQGNLSDCGCDKEKQGQYHRDEGWKWGGCSADIRYGIGFAKVFVDAREIKQNARTLMNLHNNEAGRKILEENMKLECKCHGVSGSCTTKTCWTTLPQFRELGYVLKDKYNEAVHVEPVRASRNKRPTFLKIKKPLSYRKPMDTDLVYIEKSPNYCEEDPVTGSVGTQGRACNKTAPQASGCDLMCCGRGYNTHQYARVWQCNCKFHWCCYVKCNTCSERTEMYTCK
modifications: conditioned medium
notes: Partially purified / conditioned media from Wnt-7a overexpressing fibroblast cell line
B3: Wnt-5a: Partially purified conditioned media from stable fibroblast cell line engineered to secrete Wnt-5a ligand (protein)
chain: IIGAQPLCSQLAGLSQGQKKLCHLYQDHMQYIGEGAKTGIKECQYQFRHRRWNCSTVDNTSVFGRVMQIGSRETAFTYAVSAAGVVNAMSRACREGELSTCGCSRAARPKDLPRDWLWGGCGDNIDYGYRFAKEFVDARERERIHAKGSYESARILMNLHNNEAGRRTVYNLADVACKCHGVSGSCSLKTCWLQLADFRKVGDALKEKYDSAAAMRLNSRGKLVQVNSRFNSPTTQDLVYIDPSPDYCVRNESTGSLGTQGRLCNKTSEGMDGCELMCCGRGYDQFKTVQTERCHCKFHWCCYVKCKKCTEIVDQFVCK
modifications: left off: small tags and cut ends
B4: Wnt-2: Partially purified / conditioned media from Wnt-2 overexpressing fibroblast cell line (protein, UniProt P21552 26-360, looked up)
Protein Wnt-2: SWWYMRATGGSSRVMCDNVPGLVSRQRQLCHRHPDVMRAIGLGVAEWTAECQHQFRQHRWNCNTLDRDHSLFGRVLLRSSRESAFVYAISSAGVVFAITRACSQGELKSCSCDPKKKGSAKDSKGTFDWGGCSDNIDYGIKFARAFVDAKERKGKDARALMNLHNNRAGRKAVKRFLKQECKCHGVSGSCTLRTCWLAMADFRKTGDYLWRKYNGAIQVVMNQDGTGFTVANKRFKKPTKNDLVYFENSPDYCIRDREAGSLGTAGRVCNLTSRGMDSCEVMCCGRGYDTSHVTRMTKCECKFHWCCAVRCQDCLEALDVHTCKAPKSADWATPT
modifications: conditioned medium
notes: Partially purified / conditioned media from Wnt-2 overexpressing fibroblast cell line

How the values were obtained:
Format in all cases: cell-based, rat
[1] = tested on: VM precursor cultures / Nurr1+ precursor cells; assay: BrdU incorporation (proliferation) in VM precursor cultures; details: for increase in Nurr1 and BrdU double positive precursor cells (mitosis in Nurr1+ population): 1 day in vitro; for BrdU incorporation in VM precursor cultures: 3 days in vitro
Protocol: (§1) Ventral mesencephala and cerebral cortices from embryos E13.5-14.5 obtained from timed-mated Sprague-Dawley rats were dissected, mechanically dissociated and plated at a final density of 1×10^5 cells/cm2 on poly-D-lysine coated 12- or 24-well plates in a defined, serum-free medium (N2, consisting of a 1:1 mixture of F12 and DMEM containing insulin (10 ng/ml), transferrin (100 μg/ml), putrescine (100 μM), progesterone (20 nM), selenium (30 nM), glucose (6 mg/ml), and bovine serum albumin (1 mg/ml)). Purified Type 1 astrocytes were obtained from mixed glial cultures derived from the VM or CTX of P1 rats according to a standard protocol (Wagner et al., 1999). After shaking and replating into 12-well plates, astrocytes were grown to confluency in 15% fetal bovine serum-containing media and changed to N2 medium, at which time freshly dissected VM or CTX cells were plated on top of the astrocytes at a density of 1×10^5 cells/cm2. All factors were added once, at the initiation of culture, with the exception of 5-bromodeoxyuridine (BrdU), which was added 4-6 hours prior to fixation. Cultures were maintained in a humidified 5% CO2, 95% air incubator at 37° C. and fixed after given time periods with 4% paraformaldehyde for 45 minutes prior to immunocytochemical analysis.
(§2) Fixed cultures were incubated with one of the following antibodies, diluted appropriately in phosphate-buffered saline (PBS) containing 1% bovine serum albumin and 0.3% Triton-X 100: mouse anti-BrdU, 1:50 (DAKO, Denmark), mouse anti-β-tubulin, Type III (TuJ1), 1:250 (Sigma), mouse anti-TH, 1:1000 (Incstar, USA), rabbit anti-TH, 1:250 (PelFreeze); rabbit anti-Nurr1, 1:2000 (gift from Dr. T. Perlmann, Sweden), rabbit anti-Nurr1, 1:1000 (Santa Cruz, USA) or mouse anti-Nurr1, 1:250 (BD Transduction Laboratories, USA), rabbit anti Adh2 1:4000 (gift from Dr. R. Lindahl, South Carolina). Incubations were either carried out at 4° C. overnight, or at room temperature for 1 hour. Both processes yielded similar results. After washing, cultures were incubated for 1-3 hr with appropriate secondary antibodies (biotinylated 1:500; CY2-, FITC-, or rhodamine-coupled horse-anti-mouse IgG 1:100; or goat-anti-rabbit IgG 1:100; all from Vector, USA), in the same dilution buffer. Brightfield immunostaining was visualized with the Vector Laboratory ABC immunoperoxidase kit, using either NovaRed (red), or AEC (red), SG or 3-3′ dimaminobenzidine tetrahydrochloride (DAB 0.5 mg/ml)/nickel chloride (1.6 mg/ml) (gray/black), or VIP (violet) substrates. Double-staining was performed by sequential single staining as described. The order of staining was only critical for BrdU-double labeling, in which case the BrdU procedure was always performed second. […] Photos were acquired with a Zeiss Axioplan 100M microscope and collected with a Hamamatsu camera C4742-95 (with the QED imaging software).
(§3) Only clearly stained cells were counted as positive cells. Spheres were considered positive if they contained one or more positive cell. Quantitative immunocytochemical data on individual cells represent means and standard errors of counts obtained by a blinded observer from 10-20 non-overlapping fields (cells) or in the entire well (clusters), in each of 3-4 wells per condition from 3-4 independent experiments, unless stated otherwise. For each variable, initial statistical comparisons were performed by a global ANOVA, with multiple factors of dose, time point, treatment and/or region; if significant interactions between treatment and any other variable existed, data were further divided into separate times, doses or regions. Fisher's protected least significant difference was used post hoc to identify specific points at which the treatments differed from controls (or each other) only when significant interactions between factor treatment and other variables occurred. Significance for all tests was assumed at the level of p<0.05. […]

[2] = tested on: E14.5 ventral mesencephalic precursor cultures; assay: Number of TH+ neurons in E14.5 ventral mesencephalic precursor cultures; details: for effects on TH+ cell numbers, time course: 10 units, 1, 3 and 7 days in vitro; for increases in TH+ cell numbers compared with GDNF, FGF-2 or FGF-8 / increases in TH+ cell numbers compared with VM T1A conditioned medium: after 3 days; for TH+ cell numbers: increasing concentrations of partially purified Wnt, 3 days; for increase in TH+ neurons: partially purified Wnts, compared to controls (FIG. 10A)
Protocol: as §1
B1A fibroblast lines stably overexpressing hemagglutanin-tagged Wnt-1a, 3a, or 5a (Shimizu H., 1997) were grown in standard complete media (DMEM+10% FBS) supplemented with 100 ug/ml G-418. For collection of conditioned media, cells were replated at low density in complete media and allowed to reach 50-75% confluency, at which point cells were washed and media was replaced with serum-free N2 (with 10 μM sodium butyrate) for 24 hours. Conditioned media from sister flasks was then harvested, pooled as lots and stored at −80° C. for up to 2 months. When compared to fresh CM, no loss of activity was observed when using this collection and storage routine. T1A CM was harvested using a similar procedure, with the exception that media was collected after 3 days in vitro.
For concentration, individual lots of CM were thawed at room temperature, divided into 80 ml aliquots, loaded onto Centricon-Plus 80 columns (Millipore) and concentrated via centrifugation according to the manufacturers instructions. Following concentration, aliquots were re-pooled and frozen at −80 C after a sample was taken for determination of protein content and Western blot analysis. In brief, 20 ug of protein was loaded onto a 10% polyacrylamide mini-gel and run under denaturing conditions at 150 V for approximately 30 minutes. After dry electroblot transfer onto PVDF membranes (Hybond P, Amersham Pharmacia Biotech, Upsalla, Sweden) and pre-incubation for 30 minutes in a blocking buffer consisting of 3% bovine serum albumin in Tris-Buffered Saline with […] Triton-X 100 (TBST), blots were incubated with mouse anti-hemagglutinin (Babco) diluted 1:1000 in TBST overnight at 4 C. After washing, blots were incubated with alkaline phosphatase-coupled goat anti-mouse IgG (Santa Cruz) diluted 1:1000 in TBST for 1 hour at room temperature. Blots were visualized using the Amersham ECF reagent and blue fluorescence quantitated using a Molecular Devices Storm 840 phosphoimager.
B1A fibroblast lines were cotransfected with the mFz8CRD-IgG/pRK5 and the pIRES puro 2 (Clontech, BD Bioscience, Erembodegem, Belgium) plasmids, using Lipofectamine Plus reagent (Invitrogen, Lidingo, Sweden) according to the instruction of the manufacturer. Upon selection for puromycin resistance (1 μg/ml Sigma, Stockholm, Sweden), clones were isolated and expanded. A clone overexpressing Fz8CRD 700× (real time RT-PCR analysis) was identified. Harvesting and partial purification of Fz8CRD conditioned media were performed as described previously. In all the blocking experiments performed, the Fz8CRD and B1A control partial purified conditioned medias were used at a final concentration of 125-250 μg/ml. […]

VM cultures = assay: TuJ1+ neurons and proliferating clusters, proportion dopaminergic, in VM cultures; details: for total number of TuJ1+ neurons: FIG. 3f
Protocol: as §1, §2, §3

Row | Molecule | increase in Nurr1 and BrdU double positive precursor cells (mitosis in Nurr1+ population) [1] | BrdU incorporation in VM precursor cultures [1] | effects on TH+ cell numbers, time course [2] | increases in TH+ cell numbers compared with GDNF, FGF-2 or FGF-8 [2] | increases in TH+ cell numbers compared with VM T1A conditioned medium [2] | TH+ cell numbers [2] | proportion of VM clusters containing dopaminergic neurons (VM cultures; FIG. 3e) | total number of TuJ1+ neurons (VM cultures) | proportion of TH+ (dopaminergic) neurons (VM cultures; FIG. 3g) | increase in TH+ neurons [2] | enrichment for dopaminergic clusters (VM cultures; FIG. 3e) | enrichment for dopaminergic neurons (VM cultures; FIG. 3g) | increase in number of proliferating clusters containing TuJ1+ cells (VM cultures; compared to control (FIG. 3d))
1 | B1 | 3 fold | increased | detected as early as after 1 day in vitro | exceeded increases produced by known dopaminotrophic molecules | roughly equaled | robust dose-response increases | about 30% | increased | did not increase |  |  |  | 
2 | B2 |  | BrdU+ increases similar to that of Wnt-1 |  |  |  |  |  |  |  | modest TH+ increases |  |  | 
3 | B3 | two | not | detected as early as after 1 day in vitro | exceeded increases produced by known dopaminotrophic molecules | roughly equaled | robust dose-response increases |  | did not increase |  |  | more than two | more than two | did not increase
4 | B4 |  | slight decrease |  |  |  |  |  |  |  | ~2 fold |  |  | 
